# In FireProtDB (doi:10.1021/bi047926u):
# “And” between values parts separate entries of the source, which are not always exact repeats. Equal values may be shown once.
# B1: Manganese-dependent inorganic pyrophosphatase wild type, P37487 (protein)
# chain: MEKILIFGHQNPDTDTICSAIAYADLKNKLGFNAEPVRLGQVNGETQYALDYFKQESPRLVETAANEVNGVILVDHNERQQSIKDIEEVQVLEVIDHHRIANFETAEPLYYRAEPVGCTATILNKMYKENNVKIEKEIAGLMLSAIISDSLLFKSPTCTDQDVAAAKELAEIAGVDAEEYGLNMLKAGADLSKKTVEELISLDAKEFTLGSKKVEIAQVNTVDIEDVKKRQAELEAVISKVVAEKNLDLFLLVITDILENDSLALAIGNEAAKVEKAFNVTLENNTALLKGVVSRKKQVVPVLTDAMAE
# Settings: Bacillus subtilis (strain 168); pH 7.2; Thermal; CD; TES-KOH 21 mM; KCl 4 mM; reversible: No; whole UniProt chain shown
protein,measurement,value
B1,Tm,50 °C and 46 °C
